Results reported in US20240158459A1 (KYVERNA THERAPEUTICS, published 2024).
Changes are numbered by the printed parent chain. Names and notes keep the numbering of the source.

B1: MAdCAM1 scFv 32.3 (scFv)
scFv: EVQLLESGGGLVQPGGSLRLSCAASGFSFSSSYWICWVRQAPGKGLEWVSCIYGGSSGATYYANWAKGRFTISRDNSKNTLYLQMNSLRAEDTAVYYCARSGSTTSGGVYRWYFNLWGQGTLVTVSSGGGGSGGGGSGGGGSDIQMTQSPSSLSASVGDRVTITCQASENIYNLLAWYQQKPGKVPKLLIYDASTLQSGVPSRFSGSGSGTDFTLTISSLQPEDVATYYCQFTYYGGTYESAFGGGTKVEIK
notes: Humanized rabbit-derived scFv, VH-(G4S)3-VL
B2: MAdCAM1 scFv 32.4 (scFv)
scFv: B1 scFv with V185A, T195N, Q197E, S198T, L215F, V225I
notes: as for B1
B3: MAdCAM1 scFv 32.5 (scFv)
scFv: B1 scFv with E1Q, L5V, L11V, G16R, S50A, K78T, Y82F
notes: as for B1
B4: MAdCAM1 scFv 32.7 (scFv)
scFv: B1 scFv with L5V, D75H
notes: as for B1
B5: MAdCAM1 scFv 32.8 (scFv)
scFv: B1 scFv with L5V, D75H, V185A, T195N, Q197E, S198T, L215F, V225I
notes: as for B1
B6: MAdCAM1 scFv 32.6 (scFv)
scFv: QVQLVESGGGVVQPGRSLRLSCAASGFSFSSSYWICWVRQAPGKGLEWVACIYGGSSGATYYANWAKGRFTISRDNSTNTLFLQMNSLRAEDTAVYYCARSGSTTSGGVYRWYFNLWGQGTLVTVSSGGGGSGGGGSGGGGSDIQMTQSPSSLSASVGDRVTITCQASENIYNLLAWYQQKPGKAPKLLIYDASNLETGVPSRFSGSGSGTDFTFTISSLQPEDIATYYCQFTYYGGTYESAFGGGTKVEIK
notes: as for B1
B7: MAdCAM1 scFv 8.2 (scFv)
scFv: EVQLVESGGGLVQPGGSLRLSCAASGFTLSSSYYMYWVRQAPGKGLEWVSVIYAGDGNTYYASWAKGRFTISRDNSKNTLYLQMNSLRAEDTAVYYCARGYVGYGYAIDLWGQGTLVTVSSGGGGSGGGGSGGGGSAIQLTQSPSSLSASVGDRVTITCQASQSIYSSLAWYQQKPGKAPKLLIYYASILPSGVPSRFSGSGSGTDFTLTISSLQPEDFATYYCQATTYDSTYPNAFGGGTKVEIK
notes: as for B1
B8: MAdCAM1 scFv 8.1 (scFv)
scFv: B7 scFv with A137D, L140M, S146T, D206E, E217D
notes: as for B1
B9: MAdCAM1 scFv 8.4 (scFv)
scFv: B7 scFv with V5L, V51A
notes: as for B1
B10: MAdCAM1 scFv 8.5 (scFv)
scFv: B7 scFv with E1Q, L11V, G16R, S50A, A137D, L140M, S146T, D206E, E217D
notes: as for B1
B11: MAdCAM1 scFv 8.6 (scFv)
scFv: B7 scFv with E1Q, L11V, G16R, S50A
notes: as for B1
B12: MAdCAM1 scFv 8.7 (scFv)
scFv: B7 scFv with S7T, V12I, A137D, L140M, S146T, D206E, E217D
notes: as for B1
B13: MAdCAM1 scFv 8.8 (scFv)
scFv: B7 scFv with S7T, V12I
notes: as for B1
B14: MAdCAM1 scFv 17.7 (scFv)
scFv: EVQLVESGGGLVKPGGSLRLSCAASGFSFSSTYYMCWVRQAPGKGLEWVSCIYTGSGNTDYASWAKGRFTISRDNAKNSLYLQMNSLRAEDTAVYYCARGGIVDSYFTYFDLWGQGTLVTVSSGGGGSGGGGSGGGGSDIQMTQSPSTLSASVGDRVTITCQASESIFSNLAWYQQKPGKAPKLLIYWASTLASGVPSRFSGSGSGTEFTLTISSLQPDDFATYYCQSYVYSSSSSNDFGGGTKVEIK
notes: as for B1
B15: MAdCAM1 scFv 17.1 (scFv)
scFv: B14 scFv with K13Q, D74H, A76S, S79T
notes: as for B1
B16: MAdCAM1 scFv 17.3 (scFv)
scFv: B14 scFv with E1Q, V5L, V38I
notes: as for B1
B17: MAdCAM1 scFv 17.5 (scFv)
scFv: B14 scFv with E1Q, L11V, K13Q, G16R, S50A, A76S, K77T, S79T, Y81F
notes: as for B1
B18: MAdCAM1 scFv 2.1 (scFv)
scFv: QVQLLESGGGLVKPGGSLRLSCAASGFSFSSGYYMCWIRQAPGKGLEWVSCIYADSSYTYYASWAKGRFTISRDNAKNSLYLQMNSLRAEDTAVYYCARSNGDYFYGMDLWGQGTLVTVSSGGGGSGGGGSGGGGSDIQMTQSPSSLSASVGDRVTITCQASQSINSWLSWYQQKPGKAPKLLIYRASTLASGVPSRFSGSGSGTDFTFTISSLQPEDIATYYCQSNYYSTSTAFGGGTKVEIK
notes: as for B1
B19: MAdCAM1 scFv 2.2 (scFv)
scFv: B18 scFv with D137A, F209L, I219F
notes: as for B1
B20: MAdCAM1 scFv 10.7 (scFv)
scFv: EVQLLESGGGLVQPGGSLRLSCAASGIDFSGYHYICWVRQAPGKGLEWVSCIYTVSSGIWYATWAKGRFTISRDNSKNTLYLQMNSLRAEDTAVYYCARDDADVSGYWFDLWGQGTLVTVSSGGGGSGGGGSGGGGSDIQMTQSPSSLSASVGDRVTITCQASQSISNLLAWYQQKPGKAPKLLIYKASTLASGVPSRFSGSGSGTDFTFTISSLQPEDIATYYCQQGITNNGIDHGFGGGTKVEIK
notes: as for B1
B21: MAdCAM1 scFv 10.1 (scFv)
scFv: B20 scFv with E1Q, L5V, L11V, G16R, S50A, K77T, Y81F
notes: as for B1
B22: MAdCAM1 scFv 10.2 (scFv)
scFv: QVQLVESGGGVVQPGRSLRLSCAASGIDFSGYHYICWVRQAPGKGLEWVACIYTVSSGIWYATWAKGRFTISRDNSTNTLFLQMNSLRAEDTAVYYCARDDADVSGYWFDLWGQGTLVTVSSGGGGSGGGGSGGGGSAIQLTQSPSSLSASVGDRVTITCQASQSISNLLAWYQQKPGKAPKLLIYKASTLASGVPSRFSGSGSGTDFTLTISSLQPEDFATYYCQQGITNNGIDHGFGGGTKVEIK
notes: as for B1
B23: MAdCAM1 scFv 10.3 (scFv)
scFv: B20 scFv with L5V, Q13K, S76A, T79S
notes: as for B1
B24: MAdCAM1 scFv 10.8 (scFv)
scFv: B20 scFv with D138A, M141L, F210L, I220F
notes: as for B1

Molecular target: T1, biotinylated-MADCAM-1 antigen (human, UniProt Q13477 19-317, limits assumed, biotinylated (site not stated))
T1 construct: The BLI paragraph says only 'biotinylated-MADCAM-1 antigen'; also called mucosal addressin cell adhesion molecule 1
T1 sequence (looked up): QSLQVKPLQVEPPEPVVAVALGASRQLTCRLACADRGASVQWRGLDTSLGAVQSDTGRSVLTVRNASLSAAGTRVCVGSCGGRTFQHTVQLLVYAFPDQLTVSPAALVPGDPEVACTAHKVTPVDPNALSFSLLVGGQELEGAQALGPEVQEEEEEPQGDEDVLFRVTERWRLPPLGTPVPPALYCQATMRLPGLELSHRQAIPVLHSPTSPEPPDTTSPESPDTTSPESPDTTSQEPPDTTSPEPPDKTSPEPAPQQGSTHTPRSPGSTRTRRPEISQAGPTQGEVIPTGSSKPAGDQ
Assay: BLI, biotinylated MADCAM-1 on streptavidin biosensors, scFv titrated, global 1:1 fit
Experimental: Binding affinity (KD) of MADCAM-1 scFv antibodies from Table 2 was measured using biolayer interferometry (See also FIG. 6). Streptavidin biosensors were loaded for 5 seconds with 10 Tg/mL biotinylated-MADCAM-1 antigen followed by acquisition of the baseline signal in phosphate buffer saline supplemented with bovine serum albumin and sodium azide. For the association step loaded probes were incubated for 250 seconds with a titration of anti-MADCAM-1 scFv antibodies at concentrations generally between 0 nM and 2 TM. This was followed by a dissociation step in buffer lacking anti-MADCAM-1 scFv for 250 seconds. Experimental data was normalized to a reference probe and high-frequency noise was removed by Savitzky-Golay filtering. On and off-rate constants were determined using a globally fitted 1:1 binding model.

| Kd | koff | kon | Binder |
| --- | --- | --- | --- |
| 12.1 nM | 0.00491 s⁻¹ | 407000 M⁻¹ s⁻¹ | B1 |
| 18.7 nM | 0.0108 s⁻¹ | 577000 M⁻¹ s⁻¹ | B2 |
| 5.4 nM | 0.00146 s⁻¹ | 272000 M⁻¹ s⁻¹ | B3 |
| 23.8 nM | 0.00991 s⁻¹ | 416000 M⁻¹ s⁻¹ | B4 |
| 15.5 nM | 0.0083 s⁻¹ | 534000 M⁻¹ s⁻¹ | B5 |
| 6.7 nM | 0.00219 s⁻¹ | 327000 M⁻¹ s⁻¹ | B6 |
| 78 nM | 0.00295 s⁻¹ | 37800 M⁻¹ s⁻¹ | B7 |
| 89.9 nM | 0.00186 s⁻¹ | 20700 M⁻¹ s⁻¹ | B8 |
| 30.9 nM | 0.000393 s⁻¹ | 12700 M⁻¹ s⁻¹ | B9 |
| 114 nM | 0.00158 s⁻¹ | 13800 M⁻¹ s⁻¹ | B10 |
| 84.8 nM | 0.00218 s⁻¹ | 25700 M⁻¹ s⁻¹ | B11 |
| 258 nM | 0.00428 s⁻¹ | 16600 M⁻¹ s⁻¹ | B12 |
| 311 nM | 0.00696 s⁻¹ | 22400 M⁻¹ s⁻¹ | B13 |
| 1.8 nM | 0.000537 s⁻¹ | 300000 M⁻¹ s⁻¹ | B14 |
| 2.3 nM | 0.000568 s⁻¹ | 247000 M⁻¹ s⁻¹ | B15 |
| 2.9 nM | 0.000868 s⁻¹ | 304000 M⁻¹ s⁻¹ | B16 |
| 3.7 nM | 0.000967 s⁻¹ | 258000 M⁻¹ s⁻¹ | B17 |
| 85 nM | 0.00602 s⁻¹ | 70800 M⁻¹ s⁻¹ | B18 |
| 329 nM | 0.0167 s⁻¹ | 50800 M⁻¹ s⁻¹ | B19 |
| 45.4 nM | 0.00108 s⁻¹ | 23800 M⁻¹ s⁻¹ | B20 |
| 102 nM | 0.00125 s⁻¹ | 12200 M⁻¹ s⁻¹ | B21 |
| 1260 nM | 0.00646 s⁻¹ | 5130 M⁻¹ s⁻¹ | B22 |
| 98.3 nM | 0.00114 s⁻¹ | 11600 M⁻¹ s⁻¹ | B23 |
| 928 nM | 0.00259 s⁻¹ | 2790 M⁻¹ s⁻¹ | B24 |
